Results published in article PMC2851846 (Oncogene, 2010).

Columns and labels:
[1] = biological target: T1, pCREB/KIX ternary complex on CRE DNA (pCREB/KIX/CRE) (UniProt P16220-2 1-327; P45481 588-683, phosphoserine at 133 (Ser133)); assay: native gel or EMSA
[2] = biological target: T1, pCREB/KIX ternary complex on CRE DNA …; assay: native gel or EMSA; remark: listed apart in the source

T1 sequence (P16220 whole entry, chain 1 of 2): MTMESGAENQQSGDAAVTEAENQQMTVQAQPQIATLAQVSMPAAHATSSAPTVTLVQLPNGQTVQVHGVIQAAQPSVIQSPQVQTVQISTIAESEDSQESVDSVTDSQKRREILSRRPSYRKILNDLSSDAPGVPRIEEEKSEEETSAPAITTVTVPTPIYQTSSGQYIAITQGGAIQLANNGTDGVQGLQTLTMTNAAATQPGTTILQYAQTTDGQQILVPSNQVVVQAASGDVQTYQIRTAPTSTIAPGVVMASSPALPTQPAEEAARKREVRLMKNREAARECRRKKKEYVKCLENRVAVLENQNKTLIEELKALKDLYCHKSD
T1 sequence (P45481 588-683, chain 2 of 2): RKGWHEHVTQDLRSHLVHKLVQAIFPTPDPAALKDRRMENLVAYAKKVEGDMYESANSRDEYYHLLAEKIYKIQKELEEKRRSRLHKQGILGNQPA

B1: HTLV-1 Tax protein, Tax-His6 (natural protein)
chain: not shown
For B1, the “apparent Kd on cyclin D1 CRE DNA” value [1] was 0.034 ± 0.005 µM and the “apparent Kd on vCRE DNA” value [2] was 0.0024 ± 0.0001 µM.
